Results reported in patent US20100196282A1, “OPTICAL IMAGING AGENTS” (priority 2007, published 2010).
Where a SMILES comes first, the peptide text is derived from it. Bridges are numbered along the chain shown (N, C = ends). The star is where a group is joined. X1 = CC1=CC(C)(C)N(CCCS(=O)(=O)O)c2cc3c(cc21)/C(=C/C=C/C1=[N+](CCCS(=O)(=O)O)c2ccc(S(=O)(=O)[O-])cc2C1(C)CCCC(=O)*)C=C(C(C)(C)C)O3; X5 = CCN1c2cc3c(cc2C(C)=CC1(C)C)/C(=C/C=C/C1=[N+](CCCS(=O)(=O)O)c2ccc(S(=O)(=O)[O-])cc2C1(C)CCCC(=O)*)C=C(C(C)(C)C)O3; X4 = CCN(CC)c1ccc2c(c1)OC(C(C)(C)C)=C/C2=C\C=C\C1=[N+](CCCS(=O)(=O)O)c2ccc(S(=O)(=O)[O-])cc2C1(C)CCCC(=O)*; X6 = CCN(CC)c1ccc2c(c1)OC(C(C)(C)C)=C/C2=C\C=C\C1=[N+](CCCCCC(=O)*)c2ccc(S(=O)(=O)[O-])cc2C1(C)C

Tests used:
human c-Met/Fc chimera = target: T1, human c-Met/Fc chimera (Homo sapiens, UniProt P08581); assay: Fluorescence polarisation assay, affinity binding to cMet; settings: 5 nM dye-labelled peptide, c-Met/Fc 0-250 nM, 10 min at 30° C., one-site binding
T1 construct: Fc (immunoglobulin Fc fusion partner); purchased R&D Systems
T1 sequence (P08581 with tags, fused parts or gaps limits assumed): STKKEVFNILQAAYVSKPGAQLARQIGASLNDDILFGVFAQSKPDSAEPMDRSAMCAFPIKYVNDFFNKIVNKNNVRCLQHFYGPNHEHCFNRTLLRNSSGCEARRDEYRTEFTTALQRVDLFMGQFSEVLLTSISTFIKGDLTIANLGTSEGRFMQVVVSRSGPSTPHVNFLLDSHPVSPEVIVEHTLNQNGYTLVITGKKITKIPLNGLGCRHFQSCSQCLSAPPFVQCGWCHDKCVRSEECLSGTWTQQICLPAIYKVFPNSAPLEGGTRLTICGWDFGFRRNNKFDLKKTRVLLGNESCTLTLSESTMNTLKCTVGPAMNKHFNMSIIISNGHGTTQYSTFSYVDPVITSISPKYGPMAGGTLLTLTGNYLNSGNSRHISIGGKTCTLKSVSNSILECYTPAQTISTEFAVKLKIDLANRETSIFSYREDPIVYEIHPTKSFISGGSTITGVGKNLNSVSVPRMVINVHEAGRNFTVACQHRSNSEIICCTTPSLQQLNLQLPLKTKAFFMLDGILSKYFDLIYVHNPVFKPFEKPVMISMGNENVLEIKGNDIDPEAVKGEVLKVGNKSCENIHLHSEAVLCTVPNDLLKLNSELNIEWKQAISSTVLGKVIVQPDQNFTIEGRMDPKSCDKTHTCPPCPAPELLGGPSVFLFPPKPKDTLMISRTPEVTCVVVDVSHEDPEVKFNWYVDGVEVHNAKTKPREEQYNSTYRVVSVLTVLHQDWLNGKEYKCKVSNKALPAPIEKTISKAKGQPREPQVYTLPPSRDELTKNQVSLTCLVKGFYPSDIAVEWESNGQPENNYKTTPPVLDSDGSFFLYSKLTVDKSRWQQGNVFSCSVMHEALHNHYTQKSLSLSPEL
T1 sequence (P08581 25-307 limits assumed, change not shown): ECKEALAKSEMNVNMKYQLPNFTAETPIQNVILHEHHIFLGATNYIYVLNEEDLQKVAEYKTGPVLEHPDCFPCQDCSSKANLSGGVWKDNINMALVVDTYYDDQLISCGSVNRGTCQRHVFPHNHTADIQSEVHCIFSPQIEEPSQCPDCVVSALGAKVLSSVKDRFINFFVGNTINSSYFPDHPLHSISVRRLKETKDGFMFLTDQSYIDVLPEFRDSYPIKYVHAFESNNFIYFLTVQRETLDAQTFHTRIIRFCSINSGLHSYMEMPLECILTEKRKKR
Description: Monochromatic light passes through a […] polarizing filter and excites fluorescent molecules in the sample. Only those molecules that oriented properly in the vertically polarized plane adsorb light, become excited, and subsequently emit light. The emitted light is measured in both horizontal and vertical planes. The anisotropy value (A), is the ratio between the light intensities following the equation
The fluorescence anisotropy measurements were performed in 384-well microplates in a volume of 10 μL in binding buffer (PBS, 0.01% Tween-20, pH 7.5) using a Tecan Safire fluorescence polarisation plate reader (Tecan, US) at Ex 635/Em 678 nm. The concentration of dye-labelled peptide was held constant (5 nM) and the concentration of the human c-Met/Fc chimera (R&D Systems) was varied from 0-250 nM. Binding mixtures were equilibrated in the microplate for 10 min at 30° C. The observed change in anisotropy was fitted to the equation: […]
where robs is the observed anisotropy, rfree is the anisotropy of the free peptide, rbound is the anisotropy of the bound peptide, Kd is the dissociation constant, cMet is the total c-Met concentration, and P is the total dye-labelled peptide concentration. The equation assumes that the synthetic peptide and the receptor form a reversible complex in solution with 1:1 stoichiometry. Data fitting was done via nonlinear regression using SigmaPlot software to obtain the Kd value (one-site binding).
Compounds 1 to 6 were tested for binding towards human c-Met (Fc chimera).

human serum albumin [1] = target: T2, human serum albumin (Homo sapiens, UniProt P02768); assay: in vitro
T2 sequence (P02768 25-609): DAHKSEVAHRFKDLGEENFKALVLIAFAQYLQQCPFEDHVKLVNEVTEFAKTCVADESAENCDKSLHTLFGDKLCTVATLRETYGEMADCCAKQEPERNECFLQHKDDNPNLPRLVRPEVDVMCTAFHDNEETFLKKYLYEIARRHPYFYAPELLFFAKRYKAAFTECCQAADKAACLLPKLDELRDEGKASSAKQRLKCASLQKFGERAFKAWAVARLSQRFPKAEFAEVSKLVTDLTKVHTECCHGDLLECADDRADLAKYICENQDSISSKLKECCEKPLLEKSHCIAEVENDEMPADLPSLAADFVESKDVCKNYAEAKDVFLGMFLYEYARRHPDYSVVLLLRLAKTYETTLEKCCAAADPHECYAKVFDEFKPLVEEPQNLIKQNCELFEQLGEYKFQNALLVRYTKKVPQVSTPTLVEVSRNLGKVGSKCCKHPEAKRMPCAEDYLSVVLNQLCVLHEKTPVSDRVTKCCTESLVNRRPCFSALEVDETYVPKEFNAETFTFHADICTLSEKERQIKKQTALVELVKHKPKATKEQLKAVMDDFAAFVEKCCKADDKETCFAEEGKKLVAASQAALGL
From the text: Fluorescence polarisation assay was used to examine the affinity binding of the imaging agent towards the cMet target as well as the binding properties related to plasma proteins. The principle of the fluorescence polarisation method can briefly be described as follows:
(§1) The change of the polarization value was used to assess the binding of the Compound to human serum albumin as a low change of polarisation value is associated to low binding being appropriate for in-vivo use.

in vitro = settings: mouse, plasma
From the text: as §1

human serum albumin [2] = target: T2, human serum albumin
[3] = Limited acute dose toxicity study in male rats; type: in vivo, rat; settings: i.v.
Description: A limited acute dose toxicity study was conducted to investigate the tolerance of Compound 6 at 100 times the preclinical imaging dose (50 nmol/kg body weight).
The compound was injected intravenously in male rats, and the animals were sacrificed at 1, 14, 21 and 28 days post injection (p.i.). At necropsy, the major organs were inspected for gross pathology, and the kidneys were taken into neutral buffered formalin for subsequent histomorphological evaluation. A weak blue colouration of the skin and a moderate blue colouration of the urine were observed immediately after injection, which disappeared within 1 day p.i. […] The other minor changes seen were incidental and common in young adult laboratory rats. Strong fluorescence staining of blood vessels in the kidney was observed on day 1 p.i.

SMILES | Kd (human c-Met/Fc chimera) [nM] | fraction unbound (human serum albumin [1]) | remaining at 2 h (in vitro) [%] | Binding human serum albumin (Biacore) (human serum albumin [2]) | Fluorescence staining of blood vessels in the kidney ([3]; 100 times dose, day 21 p.i. (strong on day 1, reduced by day 14)) | Light microscopy of the kidneys ([3]; 100 times dose, necropsy at 1, 14, 21 and 28 days p.i.) | Nephrotoxicity ([3]; 100 times dose, no degeneration, necrosis or inflammation) | Time to disappearance of blue colouration of skin and urine ([3]; 100 times dose, observed immediately after injection) [days] | Tolerance of a single intravenous administration ([3]; 100 times the preclinical imaging dose (50 nmol/kg body weight))
CCN(CC)c1ccc2c(c1)OC(C(C)(C)C)=C/C2=C\C=C\C1=[N+](CCCCCC(=O)NCCCC[C@H](NC(=O)CNC(=O)CNC(=O)CNC(=O)[C@@H](NC(=O)CNC(=O)[C@H](CCC(=O)O)NC(=O)[C@@H](NC(=O)[C@H](CCC(=O)O)NC(=O)[C@H](Cc2ccc(O)cc2)NC(=O)[C@@H]2CSSC[C@H](NC(=O)[C@H](CO)NC(=O)CNC(=O)[C@H](C)NC(C)=O)C(=O)N[C@@H](Cc3ccc(O)cc3)C(=O)N[C@H]3CSSC[C@H](NC(=O)[C@H](CCC(=O)O)NC(=O)[C@H](Cc4ccccc4)NC(=O)[C@H](CCCNC(=N)N)NC(=O)[C@@H]4CCCN4C(=O)[C@@H]4CCCN4C(=O)CNC(=O)[C@H](CO)NC3=O)C(=O)N[C@@H](Cc3c[nH]c4ccccc34)C(=O)N2)[C@@H](C)O)[C@@H](C)O)C(N)=O)c2ccc(S(=O)(=O)[O-])cc2C1(C)C [Compound 1] (Ac-AGSCYCSGPPRFECWCYETEGTGGGK(X6)-NH2; disulfide 4-16, 6-14) | 2.2 | 0.64 | > 95 | Very high |  |  |  |  | 
CCN(CC)c1ccc2c(c1)OC(C(C)(C)C)=C/C2=C\C=C\C1=[N+](CCCS(=O)(=O)O)c2ccc(S(=O)(=O)[O-])cc2C1(C)CCCC(=O)NCCCC[C@H](NC(=O)CNC(=O)CNC(=O)CNC(=O)[C@@H](NC(=O)CNC(=O)[C@H](CCC(=O)O)NC(=O)[C@@H](NC(=O)[C@H](CCC(=O)O)NC(=O)[C@H](Cc1ccc(O)cc1)NC(=O)[C@@H]1CSSC[C@H](NC(=O)[C@H](CO)NC(=O)CNC(=O)[C@H](C)NC(C)=O)C(=O)N[C@@H](Cc2ccc(O)cc2)C(=O)N[C@H]2CSSC[C@H](NC(=O)[C@H](CCC(=O)O)NC(=O)[C@H](Cc3ccccc3)NC(=O)[C@H](CCCNC(=N)N)NC(=O)[C@@H]3CCCN3C(=O)[C@@H]3CCCN3C(=O)CNC(=O)[C@H](CO)NC2=O)C(=O)N[C@@H](Cc2c[nH]c3ccccc23)C(=O)N1)[C@@H](C)O)[C@@H](C)O)C(N)=O (stereo partly drawn) [Compound 2] (Ac-AGSCYCSGPPRFECWCYETEGTGGGK(X4)-NH2; disulfide 4-16, 6-14) | 0.5 | 0.67 | > 95 | Very low |  |  |  |  | 
CCN1c2cc3c(cc2C(C)=CC1(C)C)/C(=C/C=C/C1=[N+](CCCS(=O)(=O)O)c2ccc(S(=O)(=O)[O-])cc2C1(C)CCCC(=O)NCCCC[C@H](NC(=O)CNC(=O)CNC(=O)CNC(=O)[C@@H](NC(=O)CNC(=O)[C@H](CCC(=O)O)NC(=O)[C@@H](NC(=O)[C@H](CCC(=O)O)NC(=O)[C@H](Cc1ccc(O)cc1)NC(=O)[C@@H]1CSSC[C@H](NC(=O)[C@H](CO)NC(=O)CNC(=O)[C@H](C)NC(C)=O)C(=O)N[C@@H](Cc2ccc(O)cc2)C(=O)N[C@H]2CSSC[C@H](NC(=O)[C@H](CCC(=O)O)NC(=O)[C@H](Cc4ccccc4)NC(=O)[C@H](CCCNC(=N)N)NC(=O)[C@@H]4CCCN4C(=O)[C@@H]4CCCN4C(=O)CNC(=O)[C@H](CO)NC2=O)C(=O)N[C@@H](Cc2c[nH]c4ccccc24)C(=O)N1)[C@@H](C)O)[C@@H](C)O)C(N)=O)C=C(C(C)(C)C)O3 (stereo partly drawn) [Compound 5] (Ac-AGSCYCSGPPRFECWCYETEGTGGGK(X5)-NH2; disulfide 4-16, 6-14) | 2.2 | 0.51 | > 95 | Medium |  |  |  |  | 
CC(=O)N[C@@H](C)C(=O)NCC(=O)N[C@@H](CO)C(=O)N[C@H]1CSSC[C@@H](C(=O)N[C@@H](Cc2ccc(O)cc2)C(=O)N[C@@H](CCC(=O)O)C(=O)N[C@H](C(=O)N[C@@H](CCC(=O)O)C(=O)NCC(=O)N[C@H](C(=O)NCC(=O)NCC(=O)NCC(=O)N[C@@H](CCCCNC(=O)CCCC2(C)C(/C=C/C=C3\C=C(C(C)(C)C)Oc4cc5c(cc43)C(C)=CC(C)(C)N5CCCS(=O)(=O)O)=[N+](CCCS(=O)(=O)O)c3ccc(S(=O)(=O)[O-])cc32)C(N)=O)[C@@H](C)O)[C@@H](C)O)NC(=O)[C@H](Cc2c[nH]c3ccccc23)NC(=O)[C@@H]2CSSC[C@H](NC(=O)[C@H](Cc3ccc(O)cc3)NC1=O)C(=O)N[C@@H](CO)C(=O)NCC(=O)N1CCC[C@H]1C(=O)N1CCC[C@H]1C(=O)N[C@@H](CCCNC(=N)N)C(=O)N[C@@H](Cc1ccccc1)C(=O)N[C@@H](CCC(=O)O)C(=O)N2 (stereo partly drawn) [Compound 6] (Ac-AGSCYCSGPPRFECWCYETEGTGGGK(X1)-NH2; disulfide 4-16, 6-14) | 0.9 | 0.54 | > 95 | Very low | not discernible from control | no Compound 6-related findings in the kidneys | low | ≤ 1 | well tolerated and without any drug substance related adverse effects
